Reference: paper PMC3141782 (2011)

Target: luteinizing hormone receptor (LHR) (Homo sapiens, UniProt P22888)
Experiment: [125I]-hCG binding to transfected SKOV-3 cells

luteinizing hormone receptor (LHR), sequence (P22888 27-699): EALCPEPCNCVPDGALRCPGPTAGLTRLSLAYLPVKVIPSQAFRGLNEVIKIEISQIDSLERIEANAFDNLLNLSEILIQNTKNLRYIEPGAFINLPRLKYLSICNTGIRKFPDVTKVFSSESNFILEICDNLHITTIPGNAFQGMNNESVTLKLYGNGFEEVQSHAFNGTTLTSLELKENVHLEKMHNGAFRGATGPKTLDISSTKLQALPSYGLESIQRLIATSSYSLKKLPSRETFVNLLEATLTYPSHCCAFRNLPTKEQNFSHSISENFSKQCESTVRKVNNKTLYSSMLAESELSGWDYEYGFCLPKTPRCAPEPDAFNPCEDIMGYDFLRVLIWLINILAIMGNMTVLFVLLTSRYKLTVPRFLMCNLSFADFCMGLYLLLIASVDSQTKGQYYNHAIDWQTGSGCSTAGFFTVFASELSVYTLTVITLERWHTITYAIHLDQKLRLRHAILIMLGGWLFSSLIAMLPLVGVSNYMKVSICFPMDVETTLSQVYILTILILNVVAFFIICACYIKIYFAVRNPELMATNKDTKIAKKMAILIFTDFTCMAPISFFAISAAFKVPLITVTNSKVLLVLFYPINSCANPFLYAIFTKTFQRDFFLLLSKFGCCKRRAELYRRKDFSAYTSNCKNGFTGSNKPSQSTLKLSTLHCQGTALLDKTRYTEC

B1: human chorionic gonadotropin (protein)
chain 1: not shown
chain 2: SKEPLRPRCRPINATLAVEKEGCPVCITVNTTICAGYCPTMTRVLQGVLPALPQVVCNYRDVRFESIRLPGCPRGVNPVVSYAVALSCQCALCRRSTTDCGGPKDHPLTCDDPRFQDSSSSKAPPPSLPSPSRLPGPSDTPILPQ
modifications: 125I-labelled hCG
Work on B1 yielded a Kd of 0.3 nM.
